Source: the RNAGym collection of RNA variant scans (doi:10.1073/pnas.2313332121)
Variants at the floor of the assay were thinned out.

B1: TPR 5TU (parent)
chain: GGAUCUUCUCGAUCUAACAAAAAAGACAAAUCUGCCACAAAGCUUGAGAGCAUCUUCGGAUGCAGAGGCGGCAGCCUUCGGUGGCGCGAUAGCGCCAACGUUCUCAACUAUGACACGCAAAACGCGUGCUCCGUUGAAUGGAGUUUAUCAUG

Variants of: B1
Assay: polymerase ribozyme fitness, log enrichment relative to wild type (log ratio); higher = more active; in vitro selection for triplet polymerase activity
Method in brief: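 One round of in vitro selection, in triplicate, was applied to PCR-built, transcribed mutant libraries of each subunit of a heterodimeric triplet polymerase ribozyme. The steps were annealing with a biotinylated primer, partner subunit and triplets, incubation frozen at −7 °C, gel excision of extended constructs, streptavidin-bead capture and RT-PCR. Fitness is the logarithm, base 2, of genotype enrichment over wild-type enrichment from inverse-variance-weighted replicate averages of Illumina-sequenced inputs and outputs, keeping genotypes with ≥10 input reads and ≥1 read per output.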

First: GGAUCUUCUCGAUCUAACAAAAAAGACAAAUCUGCCACAAAGCUUGAGAGCAUCUUCGGAUGCAGAGGCGGCAGCCUUCGGUGGCGCGAUAGCGCCAACAUUCUCAACUAUGACACGCAAAACGCGUGCUCCGUUUAAUGGUGUUUAUCAUG
Second: GGAUCUUCUCGAUCUAACAAAAAAGACAAAUCUGCCACAAAGCUUGAGAGCAUCUUCGGAUGCAGAGGCGGCAGCCUUCGGUGGCGCGAUAGCGCCAUCGUUCUCAACUAUGACACGCAAAACGCGUGCUCCGUAGAAUGGAGUUUAUCAUG
The “polymerase ribozyme fitness (log ratio)” value of the first is lower: at most -4.2 for the first, -2.55 for the second.

First: GGAUCUUCUCGAUCUAACAAAAAAGACAAAUCUGCCACAAAGCUUGAGAGCAUCUUCGGAUGCAGAGGCGGCAGCCUUCGGUGGCGCGAUAGCGCCAGGGUUCUCAACUAUGACACGCAAAUCGCGUGCUCCGUUGAAUGGAGUUUAUCAUG
Second: GGAUCUUCUCGAUCUAACAAAAAAGACAAAUCUGCCACAAAGCUUGAGAGCAUCUUCGGAUGCAGAGGCGGCAGCCUUCGGUGGCGCGAUAGCGCCAAAGUUCUCAACUAUGACACGCAAAAGGCGUGCUCCGUUGAAUGGAGUGUAUCAUG
The “polymerase ribozyme fitness (log ratio)” value of the first is lower: -1.25 for the first, 0.0034 for the second.

Going from GGAUCUUCUCGAUCUAACAAAAAAGACAAAUCUGCCACAAAGCUUGAGAGCAUCUUCGGAUGCAGAGGCGGCAGCCUUCGGUGGCGCGAUAGCGCCAUCGUUCUCAACUAUGACCCGCAAAACGCGUGCUCCGUUGAAUGGAAUUUAUCAUG to GGAUCUUCUCGAUCUAACAAAAAAGACAAAUCUGCCACAAAGCUUGAGAGCAUCUUCGGAUGCAGAGGCGGCAGCCUUCGGUGGCGCGAUAGCGCCAACGUACUCAACUAUGACACGCCAAACGCGUGCUCCGUUGAAUGCAGUUUAUCAUG, the “polymerase ribozyme fitness (log ratio)” value rises from -3.88 to -2.4.

Going from GGAUCUUCUCGAUCUAACAAAAAAGACAAAUCUGCCACAAAGCUUGAGAGCAUCUUCGGAUGCAGAGGCGGCAGCCUUCGGUGGCGCGAUAGCGCCAAGGUUCUCAACUAUGACACGCAAAACGCGUGCUCUGUUGAAUGGAGUUUAUCAUG to GGAUCUUCUCGAUCUAACAAAAAAGACAAAUCUGCCACAAAGCUUGAGAGCAUCUUCGGAUGCAGAGGCGGCAGCCUUCGGUGGCGCGAUAGCGCCAAUGUUCUCAACUAUGACACGCAAAACGCGUGCUCCGUUGAAUCGAGUUUAUCAUG, the “polymerase ribozyme fitness (log ratio)” value falls from -1.96 to -3.43.

Going from GGAUCUUCUCGAUCUAACAAAAAAGACAAAUCUGCCACAAAGCUUGAGAGCAUCUUCGGAUGCAGAGGCGGCAGCCUUCGGUGGCGCGAUAGCGCCAAUGUUCUCAACUAUGACACGCAAAACGCGUGCUCCGUUGAAUUGAGUUUAUCAUG to GGAUCUUCUCGAUCUAACAAAAAAGACAAAUCUGCCACAAAGCUUGAGAGCAUCUUCGGAUGCAGAGGCGGCAGCCUUCGGUGGCGCGAUAGCGCCAACGUACUCAACUAUGAAACGCAAAACGCGUGCUCCGUUGAAUGGAGUUUAUCAUG, the “polymerase ribozyme fitness (log ratio)” value falls from -3.37 to -4.

First: GGAUCUUCUCGAUCUAACAAAAAAGACAAAUCUGCCACAAAGCUUGAGAGCAUCUUCGGAUGCAGAGGCGGCAGCCUUCGGUGGCGCGAUAGCGCCAAUGUUCUCAACUAUGACACGCAAAACGUGUGCUCCGUUGAAUGGAGGUUAUCAUG
Second: GGAUCUUCUCGAUCUAACAAAAAAGACAAAUCUGCCACAAAGCUUGAGAGCAUCUUCGGAUGCAGAGGCGGCAGCCUUCGGUGGCGCGAUAGCGCCAACAUUCUCAACUAUGACACGCAAAACGCGUGCUCCGUUGAAUGGAGUUCAUCAUG
The “polymerase ribozyme fitness (log ratio)” value of the first is higher: -0.905 for the first, -4.17 for the second.

Compared with GGAUCUUCUCGAUCUAACAAAAAAGACAAAUCUGCCACAAAGCUUGAGAGCAUCUUCGGAUGCAGAGGCGGCAGCCUUCGGUGGCGCGAUAGCGCCAACGGUCUCAACUAUGACACGCAAAACGCGUGCUCCGUUGGAUGGAGUUUAUCAUG, GGAUCUUCUCGAUCUAACAAAAAAGACAAAUCUGCCACAAAGCUUGAGAGCAUCUUCGGAUGCAGAGGCGGCAGCCUUCGGUGGCGCGAUAGCGCCAACGCGCUCGACUAUGACACGCAAAACGCGUGCUCCGUUGAAUGGAGUUUAUCAUG is lower in “polymerase ribozyme fitness (log ratio)” value: -1.31 for the first, -1.84 for the second.

Going from GGAUCUUCUCGAUCUAACAAAAAAGACAAAUCUGCCACAAAGCUUGAGAGCAUCUUCGGAUGCAGAGGCGGCAGCCUUCGGUGGCGCGAUAGCGCCAACCUUCUCAACUAUGACACGCAAAACGCGUGCUCCGUUGGAUGCAGUUUAACAUG to GGAUCUUCUCGAUCUAACAAAAAAGACAAAUCUGCCACAAAGCUUGAGAGCAUCUUCGGAUGCAGAGGCGGCAGCCUUCGGUGGCGCGAUAGCGCCAACGGUCUCAACUAUGACACGCAAAACGCGUGCUCCGUUGAAUGGAGUGUAUCAUG, the “polymerase ribozyme fitness (log ratio)” value rises from at most -4.2 to -0.0241.

Compared with GGAUCUUCUCGAUCUAACAAAAAAGACAAAUCUGCCACAAAGCUUGAGAGCAUCUUCGGAUGCAGAGGCGGCAGCCUUCGGUGGCGCGAUAGCGCCAACGAUCUCAACUAUGACACGCAAAACGCGUGCUUCGUUGAAUGGAGUUUAUCAUG, GGAUCUUCUCGAUCUAACAAAAAAGACAAAUCUGCCACAAAGCUUGAGAGCAUCUUCGGAUGCAGAGGCGGCAGCCUUCGGUGGCGCGAUAGCGCCAAGGUUCUCAACUAUGACACGCCAAACGCGUGCUCCGUUGAAUGGAGUUUAUCAUG is lower in “polymerase ribozyme fitness (log ratio)” value: 0.454 for the first, -0.2 for the second.

First: GGAUCUUCUCGAUCUAACAAAAAAGACAAAUCUGCCACAAAGCUUGAGAGCAUCUUCGGAUGCAGAGGCGGCAGCCUUCGGUGGCGCGAUAGCGCCAUCGUUCUCAACUAUGACACGCAAAACGCGUGCUCCGUUGAAUGGAGUUGAUCUUG
Second: GGAUCUUCUCGAUCUAACAAAAAAGACAAAUCUGCCACAAAGCUUGAGAGCAUCUUCGGAUGCAGAGGCGGCAGCCUUCGGUGGCGCGAUAGCGCCAGCGUUAUCAACUAUGACACGCAAAACGCGUGCUCCGUUGAAUGGAGUUUAUCAUG
The “polymerase ribozyme fitness (log ratio)” value of the first is higher: -0.247 for the first, -0.961 for the second.

GGAUCUUCUCGAUCUAACAAAAAAGACAAAUCUGCCACAAAGCUUGAGAGCAUCUUCGGAUGCAGAGGCGGCAGCCUUCGGUGGCGCGAUAGCGCCAUCGUUCUCAACUAUGACACGCAAAACGCGUGCUCCGUUGAAUGCAGUUUAUCAUG and GGAUCUUCUCGAUCUAACAAAAAAGACAAAUCUGCCACAAAGCUUGAGAGCAUCUUCGGAUGCAGAGGCGGCAGCCUUCGGUGGCGCGAUAGCGCCAUCGUUCUCAACUAUGACACGCAAAACGCGUGCUCCGUUGAAUGAAGUUUAUCAUG are within 0.2 log units of each other in “polymerase ribozyme fitness (log ratio)” value: -0.0983 for the first, -0.0351 for the second.

First: GGAUCUUCUCGAUCUAACAAAAAAGACAAAUCUGCCACAAAGCUUGAGAGCAUCUUCGGAUGCAGAGGCGGCAGCCUUCGGUGGCGCGAUAGCGCCAGCGUUCUCAACUAUGACACGAAAAACGCGUGAUCCGUUGAAUGGAGUUUAUCAUG
Second: GGAUCUUCUCGAUCUAACAAAAAAGACAAAUCUGCCACAAAGCUUGAGAGCAUCUUCGGAUGCAGAGGCGGCAGCCUUCGGUGGCGCGAUAGCGCCAAGGUUCUCAACUAUGACACGCAAAACGCGUGCUCCGUUGAAUGGAGUUUAUCAUA
The “polymerase ribozyme fitness (log ratio)” value of the first is lower: -2.75 for the first, -2.39 for the second.

Going from GGAUCUUCUCGAUCUAACAAAAAAGACAAAUCUGCCACAAAGCUUGAGAGCAUCUUCGGAUGCAGAGGCGGCAGCCUUCGGUGGCGCGAUAGCGCCAGCGUUCUCAACUAUGACACGCAAAACGCGUGCUCCGUUGAAUCGAGUUUAUCAUG to GGAUCUUCUCGAUCUAACAAAAAAGACAAAUCUGCCACAAAGCUUGAGAGCAUCUUCGGAUGCAGAGGCGGCAGCCUUCGGUGGCGCGAUAGCGCCAGCGUUCUCAACUAUGACACGCUAAACGAGUGCUCCGUUGAAUGGAGUUUAUCAGG, the “polymerase ribozyme fitness (log ratio)” value falls from -3.59 to at most -4.2.

Compared with GGAUCUUCUCGAUCUAACAAAAAAGACAAAUCUGCCACAAAGCUUGAGAGCAUCUUCGGAUGCAGAGGCGGCAGCCUUCGGUGGCGCGAUAGCGCCAACGGUCUCAACUAUGACACGCAAAACGCUUGCUCCGUUGAAUGGAGUUUAUCAUG, GGAUCUUCUCGAUCUAACAAAAAAGACAAAUCUGCCACAAAGCUUGAGAGCAUCUUCGGAUGCAGAGGCGGCAGCCUUCGGUGGCGCGAUAGCGCCAUCGUUCUCAACUAUGACACGCAAAACGCGUGCUCCGUUGAAUGGAGUUUAUCAUG is lower in “polymerase ribozyme fitness (log ratio)” value: 0.138 for the first, -0.453 for the second.

Going from GGAUCUUCUCGAUCUAACAAAAAAGACAAAUCUGCCACAAAGCUUGAGAGCAUCUUCGGAUGCAGAGGCGGCAGCCUUCGGUGGCGCGAUAGCGCCAAGGUUCUCAAUUAUGACACGCAAAACGCGUGCUCCGUUGAAUGGAGUUUAUCAUG to GGAUCUUCUCGAUCUAACAAAAAAGACAAAUCUGCCACAAAGCUUGAGAGCAUCUUCGGAUGCAGAGGCGGCAGCCUUCGGUGGCGCGAUAGCGCCAACGGUCUCAACUAUGACACGCAAAACGCGUGCUCCGUUGAAUGGAGGUUAUCAUG, the “polymerase ribozyme fitness (log ratio)” value rises from -4.14 to -0.737.

Compared with GGAUCUUCUCGAUCUAACAAAAAAGACAAAUCUGCCACAAAGCUUGAGAGCAUCUUCGGAUGCAGAGGCGGCAGCCUUCGGUGGCGCGAUAGCGCCAACGGUCUCAACUAUGACACGCAAAACGCGUGCUCCGUUGAAUGGAGCUUAUCAUG, GGAUCUUCUCGAUCUAACAAAAAAGACAAAUCUGCCACAAAGCUUGAGAGCAUCUUCGGAUGCAGAGGCGGCAGCCUUCGGUGGCGCGAUAGCGCCAACGCUCUCGACUAUGACACGCAAAACGCGUGCUCCGUUGAAUGGAGUUUAUCAUG is higher in “polymerase ribozyme fitness (log ratio)” value: -1.9 for the first, 0.00894 for the second.

Going from GGAUCUUCUCGAUCUAACAAAAAAGACAAAUCUGCCACAAAGCUUGAGAGCAUCUUCGGAUGCAGAGGCGGCAGCCUUCGGUGGCGCGAUAGCGCCAAAGUUCUCAACUAUGACACGCAAAACGCGUGCUCCGUUGAAUGGAGUUUAUCGUG to GGAUCUUCUCGAUCUAACAAAAAAGACAAAUCUGCCACAAAGCUUGAGAGCAUCUUCGGAUGCAGAGGCGGCAGCCUUCGGUGGCGCGAUAGCGCCAACUUUCUCAACUAUGACACGCAAAACGCGUGCUCCGUUGAAUGGAGUUUAUCAAG, the “polymerase ribozyme fitness (log ratio)” value falls from -3.11 to at most -4.2.

First: GGAUCUUCUCGAUCUAACAAAAAAGACAAAUCUGCCACAAAGCUUGAGAGCAUCUUCGGAUGCAGAGGCGGCAGCCUUCGGUGGCGCGAUAGCGCCAACUUUCUCAACUAUGACACGCAAAACGGGUGCUCCGUUGAAUGGAGUUUAUCAUG
Second: GGAUCUUCUCGAUCUAACAAAAAAGACAAAUCUGCCACAAAGCUUGAGAGCAUCUUCGGAUGCAGAGGCGGCAGCCUUCGGUGGCGCGAUAGCGCCAAUGUUCUCAACUAUGACACGCAAAACGCGUGCUCCGUUGAAUGGAGUUUAUCAUG
The “polymerase ribozyme fitness (log ratio)” value of the first is lower: -4.05 for the first, -0.26 for the second.

GGAUCUUCUCGAUCUAACAAAAAAGACAAAUCUGCCACAAAGCUUGAGAGCAUCUUCGGAUGCAGAGGCGGCAGCCUUCGGUGGCGCGAUAGCGCCAAGGUUCUCAACUAUGACACGCAAAACGCGUGCUCCGUUGAAUGGAGUUUAUCAUG and GGAUCUUCUCGAUCUAACAAAAAAGACAAAUCUGCCACAAAGCUUGAGAGCAUCUUCGGAUGCAGAGGCGGCAGCCUUCGGUGGCGCGAUAGCGCCAAAGUUCUCAACUAUGACACGCAAAACGCGUGCUCCGUUGAAUGGAGUUUAUCAUG are within 0.2 log units of each other in “polymerase ribozyme fitness (log ratio)” value: -0.744 for the first, -0.806 for the second.
